In the supplement of paper PMC10065799, “High-throughput profiling of sequence recognition by tyrosine kinases and SH2 domains using bacterial peptide display” (eLife, 2023):

Legend:
Grb2 SH2 = Grb2 SH2 (UniProt P62993); test: SH2 binding enrichment of the phosphorylated peptide, bacterial display (enrichment ratio); higher = better substrate or ligand; peptides without Tyr show the background
SHP2-C SH2 = test: as above
c-Src SH2 = test: as above
EPHB1 = EPHB1 (UniProt P54762); test: phosphorylation enrichment, bacterial display (enrichment ratio); higher = better substrate or ligand; peptides without Tyr show the background
Fyn = Fyn (UniProt P06241); test: as above
Sequence of Fyn (P06241 whole entry, looked up): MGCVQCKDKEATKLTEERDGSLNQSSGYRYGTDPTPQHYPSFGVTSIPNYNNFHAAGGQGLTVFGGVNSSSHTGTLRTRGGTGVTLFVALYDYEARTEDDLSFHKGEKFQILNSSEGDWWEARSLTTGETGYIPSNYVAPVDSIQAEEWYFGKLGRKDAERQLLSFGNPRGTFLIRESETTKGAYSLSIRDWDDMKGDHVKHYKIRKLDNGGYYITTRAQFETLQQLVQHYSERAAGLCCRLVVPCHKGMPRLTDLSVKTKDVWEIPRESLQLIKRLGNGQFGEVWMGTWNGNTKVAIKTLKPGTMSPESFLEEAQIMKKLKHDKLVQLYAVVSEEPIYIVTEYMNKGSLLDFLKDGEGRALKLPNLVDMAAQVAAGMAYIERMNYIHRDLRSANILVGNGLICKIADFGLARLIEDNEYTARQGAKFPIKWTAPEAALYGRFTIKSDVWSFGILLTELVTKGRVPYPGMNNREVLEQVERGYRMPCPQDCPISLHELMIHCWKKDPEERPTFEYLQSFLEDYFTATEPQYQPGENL

EPHB2 = EPHB2 (UniProt P29323); test: as above
Sequence of EPHB2 (P29323 whole entry, looked up): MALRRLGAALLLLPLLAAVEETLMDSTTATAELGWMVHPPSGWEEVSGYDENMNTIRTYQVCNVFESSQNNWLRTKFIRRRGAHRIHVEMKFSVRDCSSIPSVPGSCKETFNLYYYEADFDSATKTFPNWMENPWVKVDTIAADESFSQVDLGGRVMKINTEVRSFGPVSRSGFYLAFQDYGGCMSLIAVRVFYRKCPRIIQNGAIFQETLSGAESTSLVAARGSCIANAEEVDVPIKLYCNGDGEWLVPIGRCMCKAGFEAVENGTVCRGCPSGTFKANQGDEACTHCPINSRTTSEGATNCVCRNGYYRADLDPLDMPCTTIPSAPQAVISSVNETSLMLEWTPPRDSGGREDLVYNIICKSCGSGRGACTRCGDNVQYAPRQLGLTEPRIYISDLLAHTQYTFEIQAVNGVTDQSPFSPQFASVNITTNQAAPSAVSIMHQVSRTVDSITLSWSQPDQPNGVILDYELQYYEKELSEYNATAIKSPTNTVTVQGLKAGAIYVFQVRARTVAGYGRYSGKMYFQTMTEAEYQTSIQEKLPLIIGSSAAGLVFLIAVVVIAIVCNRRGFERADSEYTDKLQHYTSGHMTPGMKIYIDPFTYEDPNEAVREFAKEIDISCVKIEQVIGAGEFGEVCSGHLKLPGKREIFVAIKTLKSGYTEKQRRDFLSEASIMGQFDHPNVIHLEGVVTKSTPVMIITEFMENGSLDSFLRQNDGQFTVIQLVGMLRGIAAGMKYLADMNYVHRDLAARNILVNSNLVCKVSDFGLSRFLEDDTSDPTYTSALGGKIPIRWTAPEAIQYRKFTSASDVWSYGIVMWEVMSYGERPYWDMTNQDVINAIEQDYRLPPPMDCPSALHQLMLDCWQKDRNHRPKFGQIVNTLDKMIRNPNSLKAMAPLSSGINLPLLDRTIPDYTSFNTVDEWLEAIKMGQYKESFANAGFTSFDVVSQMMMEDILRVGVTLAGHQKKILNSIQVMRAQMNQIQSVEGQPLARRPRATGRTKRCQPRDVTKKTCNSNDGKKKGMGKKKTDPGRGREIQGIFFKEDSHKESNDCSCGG

Fer (mouse) = test: as above
MERTK = MERTK (UniProt Q12866); test: as above
Jak2 = Jak2 (UniProt O60674); test: as above
Sequence of Jak2 (O60674 whole entry, looked up): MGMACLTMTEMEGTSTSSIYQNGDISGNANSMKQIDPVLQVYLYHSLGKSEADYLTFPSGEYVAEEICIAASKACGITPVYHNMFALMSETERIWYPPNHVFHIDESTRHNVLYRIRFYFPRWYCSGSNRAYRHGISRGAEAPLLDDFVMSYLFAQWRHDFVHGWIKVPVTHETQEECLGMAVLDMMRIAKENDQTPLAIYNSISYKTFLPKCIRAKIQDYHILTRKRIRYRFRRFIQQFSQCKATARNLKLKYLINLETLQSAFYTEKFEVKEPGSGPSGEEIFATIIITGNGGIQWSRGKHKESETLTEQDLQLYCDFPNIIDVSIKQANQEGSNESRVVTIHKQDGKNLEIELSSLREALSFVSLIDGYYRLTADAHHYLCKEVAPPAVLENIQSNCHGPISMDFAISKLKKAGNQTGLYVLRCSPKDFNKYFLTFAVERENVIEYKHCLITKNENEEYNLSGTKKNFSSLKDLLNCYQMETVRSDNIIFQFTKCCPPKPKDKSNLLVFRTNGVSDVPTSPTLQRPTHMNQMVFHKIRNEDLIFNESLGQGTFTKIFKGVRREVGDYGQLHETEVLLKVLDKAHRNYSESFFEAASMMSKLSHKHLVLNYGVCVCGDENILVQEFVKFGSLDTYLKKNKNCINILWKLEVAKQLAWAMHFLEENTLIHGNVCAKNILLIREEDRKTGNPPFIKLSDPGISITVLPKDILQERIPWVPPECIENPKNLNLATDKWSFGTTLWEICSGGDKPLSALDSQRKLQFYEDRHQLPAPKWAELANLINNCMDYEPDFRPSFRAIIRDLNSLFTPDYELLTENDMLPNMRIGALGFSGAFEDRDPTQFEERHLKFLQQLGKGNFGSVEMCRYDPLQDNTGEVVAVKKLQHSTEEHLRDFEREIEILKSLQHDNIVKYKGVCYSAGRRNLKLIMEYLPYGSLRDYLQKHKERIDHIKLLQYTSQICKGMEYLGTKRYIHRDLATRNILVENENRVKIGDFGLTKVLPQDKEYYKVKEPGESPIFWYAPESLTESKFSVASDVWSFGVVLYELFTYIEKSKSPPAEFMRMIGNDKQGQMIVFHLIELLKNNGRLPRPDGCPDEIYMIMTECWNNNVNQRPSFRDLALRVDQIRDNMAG

Hck = Hck (UniProt P08631); test: as above
Sequence of Hck (P08631 whole entry, looked up): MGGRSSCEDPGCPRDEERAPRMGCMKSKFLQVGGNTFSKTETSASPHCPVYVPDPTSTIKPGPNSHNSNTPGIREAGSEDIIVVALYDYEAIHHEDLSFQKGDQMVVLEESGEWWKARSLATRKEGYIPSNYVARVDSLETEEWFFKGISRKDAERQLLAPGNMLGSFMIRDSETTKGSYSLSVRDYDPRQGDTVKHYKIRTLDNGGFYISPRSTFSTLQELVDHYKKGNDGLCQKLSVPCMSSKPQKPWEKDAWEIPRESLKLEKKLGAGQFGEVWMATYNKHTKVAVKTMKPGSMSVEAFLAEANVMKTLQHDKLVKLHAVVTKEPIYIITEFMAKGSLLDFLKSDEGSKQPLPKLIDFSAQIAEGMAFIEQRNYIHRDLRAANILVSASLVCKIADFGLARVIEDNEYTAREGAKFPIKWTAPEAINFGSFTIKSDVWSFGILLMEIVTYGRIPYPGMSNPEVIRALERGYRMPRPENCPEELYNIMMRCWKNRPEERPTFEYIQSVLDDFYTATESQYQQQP

FGFR1 = FGFR1 (UniProt P11362); test: as above
c-Src = test: as above
Fes = Fes (UniProt P07332); test: as above
Sequence of Fes (P07332 whole entry, looked up): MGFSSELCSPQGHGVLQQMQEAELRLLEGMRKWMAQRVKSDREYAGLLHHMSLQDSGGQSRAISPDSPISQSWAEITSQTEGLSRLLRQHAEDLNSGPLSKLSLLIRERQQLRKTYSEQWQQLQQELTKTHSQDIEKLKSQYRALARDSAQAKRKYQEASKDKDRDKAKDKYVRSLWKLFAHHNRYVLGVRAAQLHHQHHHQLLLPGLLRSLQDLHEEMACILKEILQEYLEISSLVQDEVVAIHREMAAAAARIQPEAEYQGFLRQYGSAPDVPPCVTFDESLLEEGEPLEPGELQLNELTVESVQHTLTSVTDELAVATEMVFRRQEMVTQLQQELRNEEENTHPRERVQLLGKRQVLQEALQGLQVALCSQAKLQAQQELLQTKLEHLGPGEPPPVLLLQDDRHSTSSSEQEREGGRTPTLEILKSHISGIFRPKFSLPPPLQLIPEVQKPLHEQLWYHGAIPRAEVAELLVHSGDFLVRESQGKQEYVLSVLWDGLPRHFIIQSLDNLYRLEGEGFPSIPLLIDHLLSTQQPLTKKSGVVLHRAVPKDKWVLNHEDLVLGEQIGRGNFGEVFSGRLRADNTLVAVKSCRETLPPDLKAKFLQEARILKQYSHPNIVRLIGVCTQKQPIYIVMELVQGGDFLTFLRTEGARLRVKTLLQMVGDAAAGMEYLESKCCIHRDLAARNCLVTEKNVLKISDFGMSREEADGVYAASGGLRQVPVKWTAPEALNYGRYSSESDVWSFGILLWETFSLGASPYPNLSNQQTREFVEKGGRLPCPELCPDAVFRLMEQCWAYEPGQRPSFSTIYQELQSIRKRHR

FGFR3 = FGFR3 (UniProt P22607); test: as above
Sequence of FGFR3 (P22607 whole entry, looked up): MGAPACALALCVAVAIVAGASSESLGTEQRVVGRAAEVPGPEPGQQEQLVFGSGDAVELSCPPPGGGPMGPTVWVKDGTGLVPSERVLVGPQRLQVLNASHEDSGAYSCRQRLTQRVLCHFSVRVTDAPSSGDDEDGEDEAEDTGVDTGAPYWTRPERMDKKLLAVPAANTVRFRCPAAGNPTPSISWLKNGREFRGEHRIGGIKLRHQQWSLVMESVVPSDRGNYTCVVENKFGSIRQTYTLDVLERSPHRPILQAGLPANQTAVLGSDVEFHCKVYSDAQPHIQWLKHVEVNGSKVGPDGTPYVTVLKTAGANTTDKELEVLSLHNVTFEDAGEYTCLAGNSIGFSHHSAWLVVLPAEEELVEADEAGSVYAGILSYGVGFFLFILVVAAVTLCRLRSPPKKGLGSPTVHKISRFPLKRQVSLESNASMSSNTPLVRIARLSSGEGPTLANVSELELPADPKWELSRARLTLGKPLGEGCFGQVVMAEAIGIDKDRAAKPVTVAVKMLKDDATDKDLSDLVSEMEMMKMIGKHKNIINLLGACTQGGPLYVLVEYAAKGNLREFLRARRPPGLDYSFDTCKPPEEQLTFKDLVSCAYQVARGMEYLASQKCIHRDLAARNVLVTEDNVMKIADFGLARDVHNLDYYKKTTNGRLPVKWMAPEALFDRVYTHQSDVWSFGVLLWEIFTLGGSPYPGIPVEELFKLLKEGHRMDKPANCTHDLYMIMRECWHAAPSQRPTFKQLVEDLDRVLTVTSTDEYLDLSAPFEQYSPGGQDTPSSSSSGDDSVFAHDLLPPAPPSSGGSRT

c-Abl (mouse) = test: as above
AncSZ = test: as above
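Wherever SH2 binding enrichment of the phosphorylated peptide, bacterial display is given: peptide library displayed on the E. coli surface as eCPX fusions, selected cells deep-sequenced, score is each peptide's frequency after selection divided by its frequency in the input.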
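Wherever phosphorylation enrichment, bacterial display is given: 11-residue human phosphosite peptides and single-mutation variants displayed on the E. coli surface, counted by deep sequencing, each peptide's frequency after selection divided by its frequency in the unselected input library; frequency after pTyr selection over input frequency; kinase dosed for 20-30% of maximal phosphorylation in three min.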

Sequence | SH2 binding enrichment (Grb2 SH2) | SH2 binding enrichment (SHP2-C SH2) | SH2 binding enrichment (c-Src SH2) | phosphorylation enrichment (EPHB1) | phosphorylation enrichment (Fyn) | phosphorylation enrichment (EPHB2) | phosphorylation enrichment (Fer (mouse)) | phosphorylation enrichment (MERTK) | phosphorylation enrichment (Jak2) | phosphorylation enrichment (Hck) | phosphorylation enrichment (FGFR1) | phosphorylation enrichment (c-Src) | phosphorylation enrichment (Fes) | phosphorylation enrichment (FGFR3) | phosphorylation enrichment (c-Abl (mouse)) | phosphorylation enrichment (AncSZ)
RLCQDYDTIGP [ANK1_Y1073] | 1.35 | 0.814 | 1.61 | 2.96 | 0.838 | 3.94 | 1.05 | 0.602 | 0.778 | 1.61 | 0.541 | 0.971 | 1.44 | 0.976 | 0.964 | 1.88
QGFDTYFGFLL [ARSB_Y165_R160Q_YF] | 0.717 | 0.724 | 0.345 | 4.39 | 11.4 | 7.17 | 8.02 | 6.29 | 4.81 | 8.45 | 6.18 | 7.09 | 2.08 | 5.31 | 1.33 | 3.29
LTERSYSFVTT [ACTA1_Y200_G199S] | 0.945 | 4.37 | 5.24 | 0.543 | 0.622 | 0.984 | 2.92 | 2.56 | 1.03 | 1.04 | 0.973 | 0.856 | 1.24 | 0.718 | 0.889 | 0.951
CDTKLYTSAPN [DNTTIP2_Y427] | 0.808 | 0.607 | 0.387 | 0.626 | 0.606 | 0.791 | 0.694 | 0.679 | 0.936 | 0.776 | 0.595 | 0.65 | 1.11 | 0.764 | 0.922 | 1
VIKDKYPKAHY [APTX_Y209_R213H] | 1.19 | 1.11 | 0.956 | 0.268 | 0.278 | 0.359 | 0.358 | 0.285 | 0.579 | 0.273 | 0.34 | 0.377 | 0.599 | 0.505 | 0.561 | 0.449
ISGGGYRACPA [FGB_Y71_R74C] | 0.958 | 0.715 | 0.533 | 0.51 | 0.44 | 0.404 | 0.495 | 0.409 | 0.61 | 0.432 | 0.469 | 0.361 | 0.818 | 0.52 | 0.58 | 0.915
TLCLCYKETEE [ATP8B1_Y658_I661T] | 0.783 | 0.672 | 0.496 | 0.879 | 0.708 | 0.749 | 0.737 | 0.483 | 1.53 | 0.647 | 0.573 | 0.617 | 1.64 | 0.903 | 1.29 | 1.42

Further lines, with some results ahead:

SH2 binding enrichment (Grb2 SH2) | SH2 binding enrichment (SHP2-C SH2) | SH2 binding enrichment (c-Src SH2) | Sequence | phosphorylation enrichment (EPHB1) | phosphorylation enrichment (Fyn) | phosphorylation enrichment (EPHB2) | phosphorylation enrichment (Fer (mouse)) | phosphorylation enrichment (MERTK) | phosphorylation enrichment (Jak2) | phosphorylation enrichment (Hck) | phosphorylation enrichment (FGFR1) | phosphorylation enrichment (c-Src) | phosphorylation enrichment (Fes) | phosphorylation enrichment (FGFR3) | phosphorylation enrichment (c-Abl (mouse)) | phosphorylation enrichment (AncSZ)
0.877 | 0.66 | 0.686 | YYLGKYLQEVL [KLB_Y910] | 0.506 | 0.568 | 0.593 | 0.523 | 1.42 | 1.3 | 0.565 | 3.66 | 0.523 | 1.34 | 2.92 | 0.902 | 1.2
0.912 | 0.523 | 0.579 | SARFPYLMAEK [LDHB_Y173_R172P] | 0.373 | 0.315 | 0.416 | 0.389 | 0.325 | 0.504 | 0.422 | 0.387 | 0.483 | 0.687 | 0.455 | 0.361 | 0.604
0.919 | 0.924 | 0.504 | NPQKPYFIRLF [WAS_Y83_S82P_YF] | 0.633 | 0.438 | 0.579 | 0.457 | 0.423 | 0.878 | 0.479 | 0.511 | 0.373 | 1 | 0.637 | 0.423 | 1.17
0.975 | 3.55 | 0.945 | LLKNMYLMLDN [STAT1_Y203_K201N] | 1.34 | 0.593 | 1.02 | 1.02 | 0.745 | 2.77 | 0.921 | 0.868 | 0.933 | 2.63 | 1.65 | 1.7 | 2.85
0.849 | 0.626 | 0.518 | ADAHHYLCKEV [JAK2_Y382] | 0.851 | 0.485 | 0.752 | 0.488 | 0.429 | 0.837 | 0.549 | 0.588 | 0.543 | 0.879 | 0.554 | 0.644 | 0.678
0.873 | 0.452 | 0.71 | LNLKDYNLVGG [GNAQ_Y356_E355D] | 0.491 | 0.481 | 0.428 | 0.464 | 0.412 | 0.508 | 0.538 | 0.523 | 0.482 | 0.665 | 0.565 | 0.465 | 0.582
0.399 | 0.573 | 0.544 | LKYAIYFEVRE [LAMA2_Y1258_A1261V] | 1.67 | 1.17 | 1.23 | 0.929 | 0.954 | 2.44 | 0.827 | 1.09 | 1.45 | 2.57 | 1.39 | 2.14 | 2.08
0.653 | 0.887 | 0.453 | VGGRIYTDDGL [PKLR_Y218_I219T] | 0.412 | 0.427 | 0.592 | 0.463 | 0.37 | 0.595 | 0.426 | 0.427 | 0.306 | 0.921 | 0.612 | 0.629 | 0.768
0.75 | 0.555 | 0.454 | VQDPAYLRDIN [OPRK1_Y369_D374N] | 0.608 | 0.467 | 0.485 | 0.46 | 0.333 | 0.766 | 0.442 | 0.415 | 0.488 | 0.974 | 0.623 | 0.604 | 0.828
0.685 | 0.465 | 0.36 | TSPALYRLDLD [TRIL_Y352_A347T] | 0.567 | 0.74 | 0.51 | 0.499 | 0.395 | 0.859 | 0.817 | 0.529 | 1.44 | 1.24 | 0.721 | 0.741 | 0.943
